As usually defined, the IC50 is the midpoint of a concentration-inhibition curve.

The source of these data is patent US20040018971A1 (published 2004).

Assay [1] addresses HLA-A*1101 (human). Kind of assay: competition with 125I-labelled probe peptide on purified HLA-A*1101, relative to standard peptide 940.06.
Another assay addresses T1, HLA-A*0101 (human).
T1 construct: also called HLA-A1
Description: competition with 125I-labelled probe peptide for purified HLA-A*0101, gel filtration; ratio = IC50 of standard peptide 944.02 / IC50 of test peptide.

Another assay addresses HLA-B*5101 (human). Description: competition vs 125I-labelled probe peptide, purified HLA, gel filtration. (In gel filtration, larger molecules generally elute earlier.)
The target of another assay is HLA-B*5401 (human). The assay is described as above.
A further assay deals with HLA-B*0702 (human). Described as above.
The target of assay [2] is T2, HLA-A*0201 (purified HLA class I molecule) (human).
T2 construct: also called HLA-A2.1
Description: competition with 125I-labelled standard peptide for purified HLA, gel filtration.

In assay [3] the target is HLA-A*1101 (human). Kind of assay: competition with 125I-labelled probe peptide for purified HLA-A*1101, gel filtration; standard peptide 940.06 [..] (6.0 nM).

Turning to VLVKSPNHVK (Synthetic peptide) [HER2/neu peptide, position 851, 10 amino acids], the relative binding ratio with HLA-A*1101 [1] is 0.0072 ratio (IC50 of standard peptide / IC50 of test peptide).

As for PTAENPEY [HER2/neu peptide, position 1241, 8 amino acids], the relative binding ratio with HLA-A*0101 came out at 0.003 ratio.

In the case of VLQGLPREY, the relative binding ratio with HLA-A*0101 is 0.005 ratio.

As to SVFQNLQVIR (Synthetic peptide) [HER2/neu peptide, position 423, 10 amino acids], the relative binding ratio with HLA-A*1101 [1] was 0.075 ratio (IC50 of standard peptide / IC50 of test peptide).

B1: Her2/neu.1174.F1I8 (peptide)
peptide: FPGKNGVI
notes: 8-mer analog of the HER2/neu peptide starting at position 1174
Take B1: the IC50 with HLA-B*5101 stood at 177 nM; in the assay with HLA-B*5401, 385 nM; with HLA-B*0702 it was 458 nM.

B2: HER2/neu peptide, position 90, 10 amino acids (peptide)
peptide: QVRQVPLQRL
notes: Synthetic peptide; also called HER2/neu 90-99
In the case of B2, the “relative binding ratio (IC50 of standard peptide / IC50 of test peptide)” value in assay [2] stood at 0.0001 ratio.

Regarding LCYQDTILWK [HER2/neu peptide, position 161, 10 amino acids], the relative binding ratio with HLA-A*1101 [3] is 0.0063 ratio (IC50 of standard peptide / IC50 of test peptide).

B3: HER2/neu peptide, position 1119, 10 amino acids (peptide)
peptide: PLPSETDGYV
notes: Synthetic peptide; also called HER2/neu 1119-1128
On to B3, for which the “relative binding ratio (IC50 of standard peptide / IC50 of test peptide)” value in assay [2] came to 0.0001 ratio.

Consider QIAKGMSY [HER2/neu peptide, position 828, 8 amino acids], for which the relative binding ratio with HLA-A*0101 is -0.0021 ratio.

Consider LACHQLCAR [HER2/neu peptide, position 509, 9 amino acids], for which, in the assay with HLA-A*1101 [3], the relative binding ratio was 0.0003 ratio (IC50 of standard peptide / IC50 of test peptide).

For RILKETELR (Synthetic peptide) [HER2/neu peptide, position 713, 9 amino acids], the relative binding ratio with HLA-A*1101 [1] was 0.0038 ratio (IC50 of standard peptide / IC50 of test peptide).

RLLDIDETEY (Synthetic peptide) [HER2/neu peptide, position 868, 10 amino acids]: in the assay with HLA-A*1101 [1], the relative binding ratio is 0.0001 ratio (IC50 of standard peptide / IC50 of test peptide).

B4: HER2/neu peptide, position 828, 9 amino acids (peptide)
peptide: QIAKGMSYL
notes: Synthetic peptide; also called HER2/neu 828-836
Take B4: in assay [2], the “relative binding ratio (IC50 of standard peptide / IC50 of test peptide)” value was 0.0006 ratio.

In the case of VLIAHNQVR (Synthetic peptide) [HER2/neu peptide, position 84, 9 amino acids], the relative binding ratio with HLA-A*1101 [1] was 0.0007 ratio (IC50 of standard peptide / IC50 of test peptide).

LSPGKNGVVK [HER2/neu peptide, position 1173, 10 amino acids]: the relative binding ratio with HLA-A*1101 [3] was 0.0003 ratio (IC50 of standard peptide / IC50 of test peptide).

B5: HER2/neu peptide, position printed as 515 (read as 545), 10 amino acids (peptide)
peptide: RVLQGLPREY
notes: The row follows '545; 8 then 545; 10 at the same point
Consider B5, for which, in the assay with HLA-A*1101 [1], the relative binding ratio is 0.005 ratio (IC50 of standard peptide / IC50 of test peptide).

Regarding LIQRNPQLCY [HER2/neu peptide, position 154, 10 amino acids], the relative binding ratio in the assay with HLA-A*1101 [3] is 0.0002 ratio (IC50 of standard peptide / IC50 of test peptide).

Take KIPVAIKVLR [HER2/neu peptide, position 747, 10 amino acids]: the relative binding ratio with HLA-A*1101 [3] was 0.0099 ratio (IC50 of standard peptide / IC50 of test peptide).

As to CVTACPYNY [HER2/neu peptide, position 295, 9 amino acids], the relative binding ratio with HLA-A*0101 was determined as 0.0042 ratio.

B6: HER2/neu peptide, position 54, 9 amino acids (peptide)
peptide: QVVQGNLEL
notes: Synthetic peptide; also called HER2/neu 54-62
As for B6, the “relative binding ratio (IC50 of standard peptide / IC50 of test peptide)” value in assay [2] was found to be 0.0001 ratio.

B7: HER2/neu peptide, position 24, 10 amino acids (peptide)
peptide: QVCTGTDMKL
notes: Synthetic peptide; also called HER2/neu 24-33
As for B7, the “relative binding ratio (IC50 of standard peptide / IC50 of test peptide)” value in assay [2] turned out to be 0.0001 ratio.

With SMPNPEGRY, in the assay with HLA-A*0101, the relative binding ratio came out at 0.0028 ratio.

B8: HER2/neu peptide, position 160, 9 amino acids (peptide)
peptide: QLCYQDTIL
notes: Synthetic peptide; also called HER2/neu 160-168
Regarding B8, in assay [2], the “relative binding ratio (IC50 of standard peptide / IC50 of test peptide)” value worked out at 0.0001 ratio.

On to MTFGAKPY [HER2/neu peptide, position 916, 8 amino acids], for which the relative binding ratio with HLA-A*0101 is -0.0021 ratio.

As for RILKETELRK (Synthetic peptide) [HER2/neu peptide, position 713, 10 amino acids], the relative binding ratio with HLA-A*1101 [1] was 0.11 ratio (IC50 of standard peptide / IC50 of test peptide).

B9: HER2/neu peptide, position 166, 10 amino acids (peptide)
peptide: TILWKDIFHK
notes: Synthetic peptide; also called Her2/neu.166
On to B9, for which the relative binding ratio in the assay with HLA-A*1101 [1] was 3.6 ratio (IC50 of standard peptide / IC50 of test peptide).

As for LALTLIDTNR [HER2/neu peptide, position 179, 10 amino acids], the relative binding ratio with HLA-A*1101 [3] is 0.0003 ratio (IC50 of standard peptide / IC50 of test peptide).

B10: HER2/neu peptide, position 484, 9 amino acids (peptide)
peptide: QLFRNPHQA
notes: Synthetic peptide; also called HER2/neu 484-492
For the molecule B10, the “relative binding ratio (IC50 of standard peptide / IC50 of test peptide)” value in assay [2] was 0.0062 ratio.

Take QVPLQRLRIV (Synthetic peptide) [HER2/neu peptide, position 93, 10 amino acids]: the “relative binding ratio (IC50 of standard peptide / IC50 of test peptide)” value in assay [2] worked out at 0.0001 ratio.

In the case of RACHPCSPM (Synthetic peptide) [HER2/neu peptide, position 190, 9 amino acids], in assay [2], the “relative binding ratio (IC50 of standard peptide / IC50 of test peptide)” value worked out at 0.0001 ratio.

With ILKETELRK [HER2/neu peptide, position 714, 9 amino acids], in the assay with HLA-A*1101 [3], the relative binding ratio was 0.0023 ratio (IC50 of standard peptide / IC50 of test peptide).

B11: HER2/neu peptide, position 402, 10 amino acids (peptide)
peptide: TLEEITGYLY
notes: Synthetic peptide; also called Her2/neu.402
Regarding B11, the relative binding ratio with HLA-A*1101 [1] was 0.0001 ratio (IC50 of standard peptide / IC50 of test peptide).

B12: HER2/neu peptide, position 711, 10 amino acids (peptide)
peptide: QMRILKETEL
notes: Synthetic peptide; also called HER2/neu 711-720
Regarding B12, the “relative binding ratio (IC50 of standard peptide / IC50 of test peptide)” value in assay [2] came to 0.0001 ratio.

As for PLQPEQLQV (Synthetic peptide) [HER2/neu peptide, position 391, 9 amino acids], the “relative binding ratio (IC50 of standard peptide / IC50 of test peptide)” value in assay [2] was found to be 0.0002 ratio.

Regarding ILWKDIFHK (also called Her2/neu.167) [HER2/neu peptide, position 167, 9 amino acids], the relative binding ratio with HLA-A*1101 [3] was 0.31 ratio (IC50 of standard peptide / IC50 of test peptide).

Consider LMTFGAKPY [HER2/neu peptide, position 915, 9 amino acids, listing 1 of 2 here], for which the relative binding ratio in the assay with HLA-A*0101 was determined as 0.0011 ratio.

Regarding LMTFGAKPY [HER2/neu peptide, position 915, 9 amino acids, listing 2 of 2 here], the relative binding ratio in the assay with HLA-A*1101 [3] was 0.0003 ratio (IC50 of standard peptide / IC50 of test peptide).

Turning to PLTSIISAV (Synthetic peptide) [HER2/neu peptide, position 650, 9 amino acids], in assay [2], the “relative binding ratio (IC50 of standard peptide / IC50 of test peptide)” value is 0.0015 ratio.

Consider RLVHRDLAAR (Synthetic peptide) [HER2/neu peptide, position 840, 10 amino acids], for which the relative binding ratio with HLA-A*1101 [1] is 0.0001 ratio (IC50 of standard peptide / IC50 of test peptide).

For LIKRRQQKIR [HER2/neu peptide, position 674, 10 amino acids], the relative binding ratio in the assay with HLA-A*1101 [3] is 0.0001 ratio (IC50 of standard peptide / IC50 of test peptide).

B13: HER2/neu peptide, position 627, 9 amino acids (peptide)
peptide: PINCTHSCV
notes: Synthetic peptide; also called HER2/neu 627-635
As to B13, the “relative binding ratio (IC50 of standard peptide / IC50 of test peptide)” value in assay [2] came out at 0.0002 ratio.

B14: HER2/neu peptide, position 296, 8 amino acids (peptide)
peptide: VTACPYNY
notes: Synthetic peptide; also called Her2/neu.296
Regarding B14, the relative binding ratio with HLA-A*0101 was 0.1 ratio.

In the case of VARCPSGVK (Synthetic peptide) [HER2/neu peptide, position 597, 9 amino acids], the relative binding ratio with HLA-A*1101 [1] is -0.0002 ratio (IC50 of standard peptide / IC50 of test peptide).

QLRSLTEIL (Synthetic peptide) [HER2/neu peptide, position 141, 9 amino acids]: in assay [2], the “relative binding ratio (IC50 of standard peptide / IC50 of test peptide)” value was found to be 0.0008 ratio.

As to ETLEEITGY [HER2/neu peptide, position 401, 9 amino acids], the relative binding ratio with HLA-A*0101 is 0.043 ratio.

On to LLNWCMQIAK [HER2/neu peptide, position 822, 10 amino acids], for which the relative binding ratio with HLA-A*1101 [3] was 0.14 ratio (IC50 of standard peptide / IC50 of test peptide).

Turning to PLPSETDGY [HER2/neu peptide, position 1119, 9 amino acids], the relative binding ratio with HLA-A*0101 amounted to 0.0017 ratio.

On to LGSGAFGTVY [HER2/neu peptide, position 726, 10 amino acids], for which the relative binding ratio with HLA-A*1101 [3] was 0.0003 ratio (IC50 of standard peptide / IC50 of test peptide).

As to SSEDCQSLTR (Synthetic peptide) [HER2/neu peptide, position 208, 10 amino acids], the relative binding ratio with HLA-A*1101 [1] is 0.002 ratio (IC50 of standard peptide / IC50 of test peptide).

As for SMPNPEGRY (Synthetic peptide), in the assay with HLA-A*1101 [1], the relative binding ratio was 0.0003 ratio (IC50 of standard peptide / IC50 of test peptide).

As for PVTGASPGGL (Synthetic peptide) [HER2/neu peptide, position 128, 10 amino acids], the “relative binding ratio (IC50 of standard peptide / IC50 of test peptide)” value in assay [2] worked out at 0.0001 ratio.

As for RGTQLFEDNY (Synthetic peptide) [HER2/neu peptide, position 103, 10 amino acids], the relative binding ratio with HLA-A*1101 [1] was 0.0015 ratio (IC50 of standard peptide / IC50 of test peptide).

For PLTSIISAVV (Synthetic peptide) [HER2/neu peptide, position 650, 10 amino acids], in assay [2], the “relative binding ratio (IC50 of standard peptide / IC50 of test peptide)” value turned out to be 0.0003 ratio.

Take TLEEITGY [HER2/neu peptide, position 402, 8 amino acids]: the relative binding ratio with HLA-A*0101 is -0.0021 ratio.

For the molecule VLQGLPREY (Synthetic peptide), in the assay with HLA-A*1101 [1], the relative binding ratio was 0.0002 ratio (IC50 of standard peptide / IC50 of test peptide).

As to TLIDTNRSR (Synthetic peptide) [HER2/neu peptide, position 182, 9 amino acids], the relative binding ratio with HLA-A*1101 [1] is 0.0005 ratio (IC50 of standard peptide / IC50 of test peptide).

In the case of KIRKYTMR [HER2/neu peptide, position 681, 8 amino acids], the relative binding ratio in the assay with HLA-A*1101 [3] is 0.0004 ratio (IC50 of standard peptide / IC50 of test peptide).

For the molecule KVLRENTSPK [HER2/neu peptide, position 753, 10 amino acids], the relative binding ratio with HLA-A*1101 [3] was 0.22 ratio (IC50 of standard peptide / IC50 of test peptide).

B15: HER2/neu peptide, position 999, 10 amino acids (peptide)
peptide: PLDSTFYRSL
notes: Synthetic peptide; also called HER2/neu 999-1008
As to B15, the “relative binding ratio (IC50 of standard peptide / IC50 of test peptide)” value in assay [2] is 0.0001 ratio.

As for TVPWDQLFR (Synthetic peptide) [HER2/neu peptide, position 479, 9 amino acids], the relative binding ratio in the assay with HLA-A*1101 [1] is 0.0072 ratio (IC50 of standard peptide / IC50 of test peptide).

For the molecule TIDVYMIMVK (Synthetic peptide) [HER2/neu peptide, position 948, 10 amino acids], the relative binding ratio with HLA-A*1101 [1] is 0.12 ratio (IC50 of standard peptide / IC50 of test peptide).
